One substance from paper PMC4452782 can be followed below.

In assay [1] the target is LC3B (human (endogenous in MDA-MB-436)) (UniProt Q9GZQ8). The assay is described as follows: proximity ligation; P-LISA (Duolink In Situ Detection Reagents Red) on MDA-MB-436 cells fixed with 4% paraformaldehyde and permeabilised with cold methanol; endogenous proteins; mouse anti-SQSTM1 or anti-NIX with rabbit anti-LC3B or anti-GL1; dots per cell counted with BlobFinder; untreated cells, also after Rapa (10 uM, 5 h), Rot (50 uM, 24 h) or CCCP (100 uM, 24 h).

Assay [2] has as its target GEC1/GABARAPL1 (GL1) (human (endogenous in MDA-MB-436 and MCF-7)) (UniProt Q9H0R8). The assay is described as above.

NIX/BNIP3L, O60238 1-219 (natural protein; other documents disagree on this pair), sequence (O60238 whole entry): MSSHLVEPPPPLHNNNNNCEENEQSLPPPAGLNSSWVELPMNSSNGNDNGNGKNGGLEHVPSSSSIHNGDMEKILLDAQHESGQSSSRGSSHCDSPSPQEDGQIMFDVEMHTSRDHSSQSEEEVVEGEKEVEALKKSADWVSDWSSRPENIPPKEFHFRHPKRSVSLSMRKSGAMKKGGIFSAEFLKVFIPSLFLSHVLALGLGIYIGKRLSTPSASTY
GEC1/GABARAPL1 (GL1) (human (endogenous in MDA-MB-436 and MCF-7)), sequence (Q9H0R8 whole entry): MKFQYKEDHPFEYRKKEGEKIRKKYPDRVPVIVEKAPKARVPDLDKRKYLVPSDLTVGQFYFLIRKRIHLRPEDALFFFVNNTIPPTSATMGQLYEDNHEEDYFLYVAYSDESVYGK

In the case of “NIX/BNIP3L, O60238 1-219 (natural protein; other documents disagree on this pair)”, the P-LISA dots per cell in assay [1] came to 18.9 dots/cell; in assay [2] it was 11.6 dots/cell.
